Experimental data from publication PMC7079142.
Where two headings read alike, the source gives them in different places.

Experiments:
StrepII-SUMO-DUX4-His6 [1] = target: T1, StrepII-SUMO-DUX4-His6 (Homo sapiens, UniProt Q9UBX2 1-424); assay: fluorescence polarization
StrepII-SUMO-DUX4-His6 [2] = target: T1, StrepII-SUMO-DUX4-His6; assay: TR-FRET competition
StrepII-SUMO-DUX4-His6 [3] = target: T1, StrepII-SUMO-DUX4-His6; assay: EMSA
StrepII-SUMO-DUX4-His6 [4] = target: T1, StrepII-SUMO-DUX4-His6; assay: TR-FRET competition; remark: listed apart in the source
PROP1-cMyc-DDK [5] = target: T2, PROP1-cMyc-DDK (UniProt O75360 1-226); assay: TR-FRET competition
T2 sequence (O75360 whole entry): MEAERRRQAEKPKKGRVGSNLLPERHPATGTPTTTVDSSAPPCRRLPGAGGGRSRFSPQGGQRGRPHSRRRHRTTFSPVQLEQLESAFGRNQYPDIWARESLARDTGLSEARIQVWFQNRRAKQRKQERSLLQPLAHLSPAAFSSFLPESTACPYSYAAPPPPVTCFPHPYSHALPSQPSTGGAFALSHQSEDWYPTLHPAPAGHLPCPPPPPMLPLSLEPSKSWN

StrepII-SUMO-DUX4-His6 [6] = target: T1, StrepII-SUMO-DUX4-His6; assay: TR-FRET competition; remark: listed apart in the source
StrepII-SUMO-DUX4-His6 [7] = target: T1, StrepII-SUMO-DUX4-His6; assay: TR-FRET competition; remark: listed apart in the source
StrepII-SUMO-DUX4-His6 [8] = target: T1, StrepII-SUMO-DUX4-His6; assay: TR-FRET competition; remark: listed apart in the source
StrepII-SUMO-DUX4-His6 [9] = target: T1, StrepII-SUMO-DUX4-His6; assay: TR-FRET competition; remark: listed apart in the source
StrepII-SUMO-DUX4-His6 [10] = target: T1, StrepII-SUMO-DUX4-His6; assay: TR-FRET competition; remark: listed apart in the source
StrepII-SUMO-DUX4-His6 [11] = target: T1, StrepII-SUMO-DUX4-His6; assay: TR-FRET competition; remark: listed apart in the source
PROP1-cMyc-DDK [12] = target: T2, PROP1-cMyc-DDK; assay: TR-FRET competition; remark: listed apart in the source
StrepII-SUMO-DUX4-His6 [13] = target: T1, StrepII-SUMO-DUX4-His6; assay: TR-FRET competition; remark: listed apart in the source
StrepII-SUMO-DUX4-His6 [14] = target: T1, StrepII-SUMO-DUX4-His6; assay: TR-FRET competition; remark: listed apart in the source
StrepII-SUMO-DUX4-His6 [15] = target: T1, StrepII-SUMO-DUX4-His6; assay: TR-FRET competition; remark: listed apart in the source
StrepII-SUMO-DUX4-His6 [16] = target: T1, StrepII-SUMO-DUX4-His6; assay: TR-FRET competition; remark: listed apart in the source
PROP1-cMyc-DDK [17] = target: T2, PROP1-cMyc-DDK; assay: TR-FRET competition; remark: listed apart in the source
StrepII-SUMO-DUX4-His6 [18] = target: T1, StrepII-SUMO-DUX4-His6; assay: TR-FRET competition; remark: listed apart in the source

T1 sequence (Q9UBX2 whole entry): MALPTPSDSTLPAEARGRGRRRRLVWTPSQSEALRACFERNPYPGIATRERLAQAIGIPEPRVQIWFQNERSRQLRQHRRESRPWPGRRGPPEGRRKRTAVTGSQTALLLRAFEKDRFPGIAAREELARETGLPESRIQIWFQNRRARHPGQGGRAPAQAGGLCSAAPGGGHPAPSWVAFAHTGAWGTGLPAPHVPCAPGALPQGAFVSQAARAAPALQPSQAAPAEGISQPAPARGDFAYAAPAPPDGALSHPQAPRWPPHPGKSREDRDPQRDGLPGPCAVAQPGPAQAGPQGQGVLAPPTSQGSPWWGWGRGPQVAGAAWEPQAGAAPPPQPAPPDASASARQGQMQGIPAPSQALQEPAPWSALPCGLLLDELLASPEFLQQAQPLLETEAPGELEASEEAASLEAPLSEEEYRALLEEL

Q: Which Kd (StrepII-SUMO-DUX4-His6 [1]) does the source give for GCTAACTTAATCAACCGCAGGTTGATTAGCCCATTAGC (structured_DNA) [Kd aptamer as printed in text and Fig 7] here?
A: ~20 nM

Q: GCTAATCTAATCAACCGCAGGTTGATTAGCCCATTAGC (structured_DNA) [DUX4_TCT_R7CCC] was tested. Which binding signal (StrepII-SUMO-DUX4-His6 [2]) did it give?
A: ~10 fold affinity vs loop-free template

Q: Does AGCTAACCTAATCAACCGCAGGTTGATTAGCCCGTTAGC (structured_DNA) [DUX4_CTT_R7CCC as in T1 for S3B-C] bind (StrepII-SUMO-DUX4-His6 [3])?
A: binds

Q: Which binding signal (StrepII-SUMO-DUX4-His6 [4]) does the source give for GCTAACTTAATCAACCGCAGGTTGATTAACCCGTTAGC (structured_DNA) [DUX4_CTT_R7CCC (DUX4_CTT_loop)] here?
A: ~20 fold affinity vs backbone

Q: What about the binding signal (PROP1-cMyc-DDK [5]) of the same binder?
A: ~5 fold IC50 gain vs DUX4_CTT

Q: What about the binding signal (StrepII-SUMO-DUX4-His6 [6]) of the same binder?
A: ~21 fold IC50 gain vs DUX4_CTT

Q: Does GCATAAACTTAATCAAGACCAGGTCATTGATTAACGCTCGTTTGG (structured_DNA) [SELEX#1] bind (StrepII-SUMO-DUX4-His6 [7])?
A: binds

Q: Does TGGTGAAGCGCAAGGAAACTTAATCACAAGGTGATTAATTGTTTG (structured_DNA) [SELEX#2] bind (StrepII-SUMO-DUX4-His6 [7])?
A: binds

Q: Does CTAGATTAACCCGTTTACCAAGCGATGGAAACTTAATCTCCATGG (structured_DNA) [SELEX#5] bind (StrepII-SUMO-DUX4-His6 [7])?
A: binds

Q: Does GCTAATCTAACCTCAACCGCAGGTTGATTAGATTAGC (structured_DNA) [DUX4_TCT_F8CC] bind (StrepII-SUMO-DUX4-His6 [8])?
A: binds

Q: Does GCTAATCTAATCAACCGCAGGTTGATTAGCCATTAGC (structured_DNA) [DUX4_TCT_R7CC] bind (StrepII-SUMO-DUX4-His6 [9])?
A: binds

Q: Does GCTAATCTAACTCAACCGCAGGTTGATTAGATTAGC (structured_DNA) [DUX4_TCT_F8C] bind (StrepII-SUMO-DUX4-His6 [10])?
A: binds

Q: Does GCTAATCTAACCCTCAACCGCAGGTTGATTAGATTAGC (structured_DNA) [DUX4_TCT_F8CCC] bind (StrepII-SUMO-DUX4-His6 [11])?
A: binds

Q: With GCTAACTTAACTCAACCGCAGGTTGATTAACCCGTTAGC (structured_DNA) [DUX4_CTT_F8C_R7CCC] as the binder, how does the binding signal (StrepII-SUMO-DUX4-His6 [4]) read?
A: ~2 fold lower affinity than single-loop DUX4_CTT_R7CCC

Q: Does GCTAACTTAACTCAACCGCAGGTTGATTAACCCGTTAGC (structured_DNA) [DUX4_CTT_F8C_R7CCC] bind (PROP1-cMyc-DDK [12])?
A: binds

Q: Does GCTAATCTAACCCCTCAACCGCAGGTTGATTAGATTAGC (structured_DNA) [DUX4_TCT_F8CCCC] bind (StrepII-SUMO-DUX4-His6 [11])?
A: binds

Q: Does GCTAATCTAATCAACCGCAGGTTGATTAGCATTAGC (structured_DNA) [DUX4_TCT_R7C] bind (StrepII-SUMO-DUX4-His6 [13])?
A: binds

Q: Does GCTAATCTAATCAACCGCAGGTTGATTAGCCCCATTAGC (structured_DNA) [DUX4_TCT_R7CCCC] bind (StrepII-SUMO-DUX4-His6 [13])?
A: binds

Q: Does GCTAATCTAATCAACCGCAGGTTGATTAGCCCCCATTAGC (structured_DNA) [DUX4_TCT_R7CCCCC] bind (StrepII-SUMO-DUX4-His6 [13])?
A: binds

Q: Does GCTAATCTAATTCAACCGCAGGTTGATTAGATTAGC (structured_DNA) [DUX4_TCT_F8T] bind (StrepII-SUMO-DUX4-His6 [14])?
A: binds

Q: Does GCTAATCTAAGTCAACCGCAGGTTGATTAGATTAGC (structured_DNA) [DUX4_TCT_F8G] bind (StrepII-SUMO-DUX4-His6 [14])?
A: binds

Q: Does GCTAATCTAACTTCAACCGCAGGTTGATTAGATTAGC (structured_DNA) [DUX4_TCT_F8CT] bind (StrepII-SUMO-DUX4-His6 [11])?
A: binds

Q: Does GCTAATCTAATCAACCGCAGGTTGATTAGTTTATTAGC (structured_DNA) [DUX4_TCT_R7TTT] bind (StrepII-SUMO-DUX4-His6 [15])?
A: binds

Q: Which binding signal (StrepII-SUMO-DUX4-His6 [16]) does the source give for GCTAATCTAATCAACCGCAGGTTGATTAGATTAGC (structured_DNA) [DUX4_TCT] here?
A: ~3 fold higher IC50 than DUX4_CCT

Q: Does GCTAATTTAATTAACCGCAGGTTAATTAAATTAGC (structured_DNA) [PROP1 aptamer] bind (PROP1-cMyc-DDK [17])?
A: binds

Q: Does GCTAACCTAATCAACCGCAGGTTGATTAGGTTAGC (structured_DNA) [DUX4_CCT] bind (StrepII-SUMO-DUX4-His6 [18])?
A: binds
